For one molecule, Kd results are on record in US20130344073A1 (OMEROS, published 2013).

The target of this assay is T1, human MASP-3 (human).
T1 construct: For selection and FACS it was full-length or a fragment, fused to an Fc domain or labelled with Dylight; also called MASP-3 antigen; rMASP-3
T1 chain: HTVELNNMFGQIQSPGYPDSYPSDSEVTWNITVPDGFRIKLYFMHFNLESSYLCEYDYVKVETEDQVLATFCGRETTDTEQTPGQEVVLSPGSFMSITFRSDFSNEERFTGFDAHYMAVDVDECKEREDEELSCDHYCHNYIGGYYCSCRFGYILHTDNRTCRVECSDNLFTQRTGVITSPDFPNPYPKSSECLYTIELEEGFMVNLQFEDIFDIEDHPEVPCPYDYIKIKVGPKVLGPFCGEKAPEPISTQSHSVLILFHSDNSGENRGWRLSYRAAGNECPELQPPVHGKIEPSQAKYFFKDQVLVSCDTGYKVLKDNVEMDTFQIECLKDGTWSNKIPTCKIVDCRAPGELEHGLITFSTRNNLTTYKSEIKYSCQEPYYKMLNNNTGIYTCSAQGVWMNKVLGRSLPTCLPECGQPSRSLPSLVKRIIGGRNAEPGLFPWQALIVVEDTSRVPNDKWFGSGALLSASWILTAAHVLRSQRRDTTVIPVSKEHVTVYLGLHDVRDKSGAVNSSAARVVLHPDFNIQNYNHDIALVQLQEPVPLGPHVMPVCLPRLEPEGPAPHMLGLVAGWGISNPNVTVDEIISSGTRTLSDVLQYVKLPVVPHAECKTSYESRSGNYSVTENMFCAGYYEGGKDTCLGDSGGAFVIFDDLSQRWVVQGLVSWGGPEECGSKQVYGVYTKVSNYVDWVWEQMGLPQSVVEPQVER
Description: saturation binding; DTLacO cells expressing the antibody stained with various concentrations of fluorescent-labeled soluble antigen. The text has this:
Recombinant antibodies were generated by cloning PCR-amplified V regions into a vector that supported expression of human IgG1 in 293F cells (Yabuki et al., PLoS ONE, 7(4):e36032 (2012)).

B1: MASP-3 specific clone M3J5 (antibody, V domains shown)
VH: AVTLDESGGGLQTPGGGLSLVCKASGFTFSSYAMGWMRQAPGKGLEYVAGIRSDGSFTLYATAVKGRATISRDNGQSTVRLQLNNLRAEDTATYFCTRSGNVGDIDAWGHGTEVIVSS
VL: ALTQPASVSANPGETVKITCSGGYSGYAGSYYYGWYQQKAPGSAPVTLIYYNNKRPSDIPSRFSGSLSGSTNTLTITGVRADDEAVYFCGSADNSGAAFGAGTTLTVL
notes: Chicken V regions; recombinant form is chimeric with human IgG1 and lambda constant regions; also called Clone 5; DTLacO clone M3J5
As for B1, the dissociation constant Kd (as a rule, the equilibrium constant for the complex coming apart) was about 31 nM.
